Laboratory results taken from PMC8298264, “Function of cofactor Akirin2 in the regulation of gene expression in model human neutrophil-like HL60 cells” (Bioscience Reports, 2021).

Test system: human HL60 cells
Experiment: SWATH-MS proteomics, differential protein representation, akirin2 KO vs WT HL60 cells
Assay type: cell-based
Conditions: SWATH-MS, akirin2 KO vs WT HL60 cells; over-represented in KO
Summary of the method: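 First, proteins from wild-type and knockout cells are digested with trypsin by FASP. Next, pooled IDA runs generate a reference ion library. Then six samples of 5 µg each are acquired by data-independent SWATH, and protein areas are normalized to the summed area of all detected proteins.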

B1: sp¦P04083¦ANXA1_HUMAN (protein, UniProt P04083 2-346, looked up)
Annexin A1: AMVSEFLKQAWFIENEEQEYVQTVKSSKGGPGSAVSPYPTFNPSSDVAALHKAIMVKGVDEATIIDILTKRNNAQRQQIKAAYLQETGKPLDETLKKALTGHLEEVVLALLKTPAQFDADELRAAMKGLGTDEDTLIEILASRTNKEIRDINRVYREELKRDLAKDITSDTSGDFRNALLSLAKGDRSEDFGVNEDLADSDARALYEAGERRKGTDVNVFNTILTTRSYPQLRRVFQKYTKYSKHDMNKVLDLELKGDIEKCLTAIVKCATSKPAFFAEKLHQAMKGVGTRHKALIRIMVSRSEIDMNDIKAFYQKMYGISLCQAILDETKGDYEKILVALCGGN
In the case of B1, the “Fold Change” value is reported as 1.503 and the “Log (Fold Change)” value is reported as 0.1771.

B2: sp¦P52789¦HXK2_HUMAN (protein, UniProt P52789 1-917, looked up)
Hexokinase-2: MIASHLLAYFFTELNHDQVQKVDQYLYHMRLSDETLLEISKRFRKEMEKGLGATTHPTAAVKMLPTFVRSTPDGTEHGEFLALDLGGTNFRVLWVKVTDNGLQKVEMENQIYAIPEDIMRGSGTQLFDHIAECLANFMDKLQIKDKKLPLGFTFSFPCHQTKLDESFLVSWTKGFKSSGVEGRDVVALIRKAIQRRGDFDIDIVAVVNDTVGTMMTCGYDDHNCEIGLIVGTGSNACYMEEMRHIDMVEGDEGRMCINMEWGAFGDDGSLNDIRTEFDQEIDMGSLNPGKQLFEKMISGMYMGELVRLILVKMAKEELLFGGKLSPELLNTGRFETKDISDIEGEKDGIRKAREVLMRLGLDPTQEDCVATHRICQIVSTRSASLCAATLAAVLQRIKENKGEERLRSTIGVDGSVYKKHPHFAKRLHKTVRRLVPGCDVRFLRSEDGSGKGAAMVTAVAYRLADQHRARQKTLEHLQLSHDQLLEVKRRMKVEMERGLSKETHASAPVKMLPTYVCATPDGTEKGDFLALDLGGTNFRVLLVRVRNGKWGGVEMHNKIYAIPQEVMHGTGDELFDHIVQCIADFLEYMGMKGVSLPLGFTFSFPCQQNSLDESILLKWTKGFKASGCEGEDVVTLLKEAIHRREEFDLDVVAVVNDTVGTMMTCGFEDPHCEVGLIVGTGSNACYMEEMRNVELVEGEEGRMCVNMEWGAFGDNGCLDDFRTEFDVAVDELSLNPGKQRFEKMISGMYLGEIVRNILIDFTKRGLLFRGRISERLKTRGIFETKFLSQIESDCLALLQVRAILQHLGLESTCDDSIIVKEVCTVVARRAAQLCGAGMAAVVDRIRENRGLDALKVTVGVDGTLYKLHPHFAKVMHETVKDLAPKCDVSFLQSEDGSGKGAALITAVACRIREAGQR
In the case of B2, the “Fold Change” value is reported as 1.502 and the “Log (Fold Change)” value is reported as 0.1767.

B3: sp¦Q9UHD1¦CHRD1_HUMAN (protein, UniProt Q9UHD1 2-332, looked up)
Cysteine and histidine-rich …: ALLCYNRGCGQRFDPETNSDDACTYHPGVPVFHDALKGWSCCKRRTTDFSDFLSIVGCTKGRHNSEKPPEPVKPEVKTTEKKELCELKPKFQEHIIQAPKPVEAIKRPSPDEPMTNLELKISASLKQALDKLKLSSGNEENKKEEDNDEIKIGTSCKNGGCSKTYQGLESLEEVCVYHSGVPIFHEGMKYWSCCRRKTSDFNTFLAQEGCTKGKHMWTKKDAGKKVVPCRHDWHQTGGEVTISVYAKNSLPELSRVEANSTLLNVHIVFEGEKEFDQNVKLWGVIDVKRSYVTMTATKIEITMRKAEPMQWASLELPAAKKQEKQKDATTD
With B3 the “Fold Change” value was 1.486 and the “Log (Fold Change)” value was 0.1721.
